Experimental findings from patent US20180258165A1 (CELL MEDICA SWITZERLAND, published 2018) are described below.

In assay [1] the target is T1, recombinant human IL-1 beta (human, UniProt P01584 117-269, biotinylated in the ELISA of Example 2 (R&D systems, cat. no. NFLB0), sites not stated; unlabelled elsewhere). The assay is described as follows: cell-based or functional assay.
The target in assay [2] is T1, recombinant human IL-1 beta. The assay is described as follows: ELISA, rhIL-1 beta coated, scFv 10 to 3'000 ng/ml, Protein L-HRP. How it is done:
A scFv of irrelevant specificity was used as a control. rhIL-1 beta (Peprotech, cat. no. 200-01B) was coated to NUNC 96-well Maxisorp immunoplates. After blocking scFvs were titrated from 10 to 3′000 ng/ml. Bound scFvs were detected by Protein L-HRP (Sigma-Aldrich, cat. no. P3226), and the ELISA was developed using BM Blue POD substrate (Roche Applied Science, cat. no. 11484281001). For quantification purposes, the absorption was measured at 450 nm using VersaMax microplate reader (Molecular Devices).

Another assay addresses T2, cynomolgus IL-1 beta (cynomolgus, UniProt P79182 117-268).
T2 construct: Bought recombinant protein; also called cymonolgus IL-1 beta
T2 sequence (looked up): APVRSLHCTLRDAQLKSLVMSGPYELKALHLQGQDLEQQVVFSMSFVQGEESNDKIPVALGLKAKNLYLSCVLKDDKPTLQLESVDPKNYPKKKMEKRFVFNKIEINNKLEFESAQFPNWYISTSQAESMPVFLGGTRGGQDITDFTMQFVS
Nature of the assay: ELISA, IL-1 beta coated at 2 mcg/ml, DLX2295 at 0.1, 0.3 and 1.0 mcg/ml, Protein L-HRP. How it is done:
(§1) Binding to the recombinantly expressed IL-1 beta proteins of the following species was investigated: cynomolgus (Sino Biological Inc., USA, cat. no. 90010-CNAE), rhesus macaque (R&D Systems, USA, cat. no. 1318-RL/CF) and mouse IL-1 beta (BioLegend, cat. no. 575102). […] Briefly, proteins were coated at a concentration of 2 mcg/ml over night at 4° C. on Maxisorp 96-well microplates in PBS pH 7.2. […] The ELISAs were developed with BM Blue POD substrate (Roche Applied Science) and the absorbance was measured at 450 nm.
A general note: An ELISA detects its analyte on a solid surface through an enzyme-linked reagent.

Another assay has as its target T3, rhesus macaque IL-1 beta (rhesus macaque, UniProt P48090 117-269).
T3 construct: Bought recombinant protein
T3 sequence (looked up): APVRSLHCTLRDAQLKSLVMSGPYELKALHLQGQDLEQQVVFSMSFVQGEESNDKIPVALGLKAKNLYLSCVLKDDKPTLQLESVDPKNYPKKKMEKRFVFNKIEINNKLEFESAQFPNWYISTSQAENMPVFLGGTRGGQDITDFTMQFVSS
Described as above. The procedure:
as §1

For a further assay, the target named is T4, mouse IL-1 beta (mouse, UniProt P10749 118-269).
T4 construct: Bought recombinant protein
T4 sequence (looked up): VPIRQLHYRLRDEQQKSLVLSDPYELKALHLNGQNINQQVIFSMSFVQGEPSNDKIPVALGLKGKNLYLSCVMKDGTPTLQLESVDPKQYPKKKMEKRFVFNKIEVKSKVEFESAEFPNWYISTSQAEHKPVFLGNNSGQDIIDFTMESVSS
The description is as above. How it is done: as §1

Where a chain is given by its changes, count along the chain named.

B1: DLX2260 (scFv)
scFv: EIVMTQSPSTLSASVGDRVIITCRASQDISNYLSWYQQKPGKAPKLLIYYTSKLHSGVPSRFSGSGSGAEFTLTISSLQPDDFATYYCLQGKMLPWTFGQGTKLTVLGGGGGSGGGGSGGGGSGGGGSEVQLVESGGGLVQPGGSLRLSCTASGFSLSTSGMGVGWVRQAPGKGLEWVGHIWWDGDESYNPSLKSRFTISRDTSKNTVYLQMNSLRAEDTAVYYCARNRYDPPWFVDWGQGTLVTVSS
On to B1, for which, in assay [1], the “IC50 of IL-1 beta-induced IL-6 release from human dermal fibroblasts” value (“IC50 of IL-1 beta-induced IL-6 release” below) is roughly 100 pM.

B2: DLX2332 (scFv)
scFv: B1 scFv with D81E, Y87F, L139S, T151A, V222S, Y224F, L243T
notes: also called anti-IL-1 beta scFv DLX2332
Take B2: the binding result in assay [2] is listed as “binds”.

B3: DLX2295 (scFv)
scFv: DIQMTQSPSTLSASVGDRVTITCRASQDISNYLSWYQQKPGKAPKLLIYYTSKLHSGVPSRFSGSGSGAEFTLTISSLQPEDFATYFCLQGKMLPWTFGQGTKLEIKRGGGGSGGGGSGGGGSGGGGSEVQLVESGGGSVQPGGSLRLSCAFSGFSLSTSGMGVGWIRQAPGKGLEWVSHIWWDGDESYNPSLKGRFTISKDTSRNTVYLQMNSLRAEDTASYFCARNRYDPPWFVDWGQGTTVTVSS
notes: also called anti-IL-1 beta scFv DLX2295
As to B3, the “IC50 of IL-1 beta-induced IL-6 release” value in assay [1] lay within 2 to 5 pM. The binding result with cynomolgus IL-1 beta, with rhesus macaque IL-1 beta and in the assay with mouse IL-1 beta was “binds” throughout.

B4: DLX2296 (scFv)
scFv: B3 scFv with S139L, S222V, T243L
As to B4, the “IC50 of IL-1 beta-induced IL-6 release” value in assay [1] was roughly 8 pM.
